Test results from US20240218070A1 (MERUS N V, published 2024).

B1: anti-human FAP bivalent monospecific IgG comprising heavy chain variable region SEQ ID NO: 69 (antibody, V domains shown)
VH: EVQLVETGGGLIQPGGSLRLSCAASGFTVSSNYMSWVRQAPGKGLEWVSVIYSGGSTYYADSVKGRFTISRDNSKNTLYLQMNSLRAEDTAVYYCARGPTDAYPYLDYLWGQGTLVTVSS
VL: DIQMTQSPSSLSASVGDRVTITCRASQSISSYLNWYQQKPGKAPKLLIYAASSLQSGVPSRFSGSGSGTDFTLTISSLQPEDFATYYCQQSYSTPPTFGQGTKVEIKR
notes: IgG1 format, common light chain VK1-39/JK1; also called human/mouse cross-reactive FAP IgG
B2: anti-human FAP bivalent monospecific IgG comprising heavy chain variable region SEQ ID NO: 15 (antibody, V domains shown)
VH: QLQLQESGPGLVKPSETLSLTCTVSGGSISSSSYFWAWIRQPPGKGLEFIGNIYYSGSTYYNPSLKSRVTISVDTSKNQFSLKLSSVTAADTAVYYCARPSYYGSGNYYFAFWGQGTLVTVSS
VL: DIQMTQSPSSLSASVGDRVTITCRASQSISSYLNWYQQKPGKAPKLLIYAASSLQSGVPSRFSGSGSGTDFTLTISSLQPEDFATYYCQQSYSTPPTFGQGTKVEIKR
notes: IgG1 format, common light chain VK1-39/JK1
B3: anti-human FAP bivalent monospecific IgG comprising heavy chain variable region SEQ ID NO: 11 (antibody, V domains shown)
VH: EVQLVESGGGLVQPGGSLRLSCAASGFTFSSYAMIWVRQAPGKGLEWVSAISGSGGYTFNADSVKGRFTMSRDNSKNTLYLQMNSLRAEDTAVYYCAKRDGGYEGGAFDIWGQGTLVTVSS
VL: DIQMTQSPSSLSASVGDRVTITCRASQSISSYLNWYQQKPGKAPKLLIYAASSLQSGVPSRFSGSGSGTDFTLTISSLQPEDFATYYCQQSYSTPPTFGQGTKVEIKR
notes: as for B2
B4: anti-human FAP bivalent monospecific IgG comprising heavy chain variable region SEQ ID NO: 19 (antibody, V domains shown)
VH: EVQLVESGGGLVKPGGSLRLSCAASGFPFNYAWMSWVRQAPGKGLEWVGRIKPKTSGGATDYAAPVKDRFTISRDDSRNTLYLQMNSLKTEDTAVYYCSAREDIWNFFFDLWGQGTLVTVSS
VL: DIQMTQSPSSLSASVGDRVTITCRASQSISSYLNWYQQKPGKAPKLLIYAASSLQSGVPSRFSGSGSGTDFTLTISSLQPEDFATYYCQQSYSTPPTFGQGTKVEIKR
notes: as for B2

Columns and labels:
[1] = molecular target: T1, human FAP (huFAP) expressed on cells (human, UniProt Q12884 1-760); experiment: FACS titration (10 ug/ml to 3.16 ng/ml) on WI-38 cells
T1 construct: also called WI-38 cells
T1 sequence: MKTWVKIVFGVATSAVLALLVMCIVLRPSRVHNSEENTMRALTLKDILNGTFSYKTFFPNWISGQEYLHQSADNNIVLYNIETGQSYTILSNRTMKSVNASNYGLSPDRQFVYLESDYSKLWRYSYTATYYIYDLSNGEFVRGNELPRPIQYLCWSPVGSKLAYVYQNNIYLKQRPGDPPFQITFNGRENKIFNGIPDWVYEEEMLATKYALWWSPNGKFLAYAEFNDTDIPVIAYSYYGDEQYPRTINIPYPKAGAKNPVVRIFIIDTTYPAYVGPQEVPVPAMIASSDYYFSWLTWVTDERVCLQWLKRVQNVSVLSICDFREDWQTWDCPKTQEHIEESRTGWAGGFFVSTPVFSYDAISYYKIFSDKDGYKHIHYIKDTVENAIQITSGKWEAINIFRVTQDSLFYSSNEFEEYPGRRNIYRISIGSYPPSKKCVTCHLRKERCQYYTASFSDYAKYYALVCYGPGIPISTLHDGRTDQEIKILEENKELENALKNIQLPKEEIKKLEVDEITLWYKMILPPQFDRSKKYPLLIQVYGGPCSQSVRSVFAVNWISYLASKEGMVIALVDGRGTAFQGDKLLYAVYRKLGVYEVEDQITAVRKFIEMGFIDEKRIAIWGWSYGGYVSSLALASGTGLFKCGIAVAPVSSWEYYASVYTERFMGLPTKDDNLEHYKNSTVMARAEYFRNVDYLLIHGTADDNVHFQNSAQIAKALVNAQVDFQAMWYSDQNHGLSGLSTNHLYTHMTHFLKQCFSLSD
Description: (§1) The human anti-FAP panel was tested on WI-38 cells (endogenously expressing huFAP) and binding was measured by FACS.
(§2) The target cells were harvested, counted, and centrifuged for 5 min at 300 g at 4° C. Cells were then resuspended in FACS buffer at a concentration of 1×10⁶ cells/ml and transferred (200,000 cells/well) to a U-bottom 96-well FACS plate (BD, cat. #353910). Cells were washed by adding 200 μl PBS and centrifuged for 3 min at 300 g at 4 °C. Cells were then centrifuged for 3 min at 300 g at 4° C. and supernatant was discarded. Antibodies were diluted in an 8 steps, semi-log dilution series ranging from 10 ug/ml to 3.16 ng/ml in FACS buffer (50 μ/well), mixed, and incubated for 30 min at 2-8° C. in the dark. A titration of the sibrotuzumab analog was included as positive control and used to normalize data. The negative control TT antibody was included as negative control. Cells were washed by adding 150 μl FACS buffer and centrifuged for 3 min at 300 g at 4° C. Supernatant was discarded, and cells were washed again by adding 200 μl FACS buffer to the plate. Cells were then centrifuged for 3 min at 300 g at 4° C. and afterwards the supernatant was discarded. […] Fluorescence intensity of the cells was then measured on the iQue VBR (Intellicyt).

[2] = molecular target: T1, human FAP (huFAP) expressed on cells; experiment: FACS, 293FF cells stably expressing huFAP, IgG at 2.5 ug/ml
Description: The binding of all test and control antibodies to the cells was tested at a single concentration of 2.5 ug/ml. Goat-anti-human IgG F(ab)2-PE (Invitrogen, H10104) was used as secondary antibody (1:100 in FACS buffer). Ab0625 was used at 10 ug/ml and its binding was detected using Ab0250 (Becton Dickinson, 550767) (1:100 in FACS buffer). The FACS buffer containing PBS (Gibco, cat. #10010-015), 0.5% BSA (Thermo Scientific, cat. #37525), and 2 mM EDTA (Invitrogen, cat. #15575-020) was kept ice cold throughout the assay.
The target cells were harvested, counted, and centrifuged for 5 min at 300 g at 4 °C. Cells were then resuspended in FACS buffer at a concentration of 1×10⁶ cells/ml and transferred (200,000 cells/well) to a U-bottom 96-well FACS plate (BD, cat. #353910). Cells were then centrifuged for 3 min at 300 g at 4° C. and supernatant was discarded. 50 μl of primary antibody solutions were added to the cells, mixed, and incubated for 30 min at 2-8° C. in the dark. Cells were washed by adding 150 μl FACS buffer and centrifuged for 3 min at 300 g at 4° C. Supernatant was discarded, and cells were washed again by adding 200 μl FACS buffer to the plate. Cells were then centrifuged for 3 min at 300 g at 4° C. and afterwards the supernatant was discarded. 50 μl of secondary antibody solutions were added to the cells, mixed, and incubated for 30 min at 2-8° C. in the dark. […]

[3] = molecular target: T1, human FAP (huFAP) expressed on cells; experiment: FACS titration (10 ug/ml to 3.16 ng/ml) on WI-38 cells; positive control sibrotuzumab analog
Description: as §1, §2

Binder	binding result [1]	other results
B1	binds	
B2	binds	
B3		binding result [2]: binds
B4		binding result [3]: binds
